Measured values as given in USRE40831.

Molecular target: hepatitis B virus surface antigen, ad antigen (Chemicon Cat. No. AG 850) (hepatitis B virus)
Assay: competitive ELISA

B1: Ab19.79.5, human monoclonal antibody secreted by hybridoma cell line 19.79.5 (ECACC Accession No. 96052168) (antibody, human IgG1, V domains shown)
VH: QVQLVESGGGVVQPGGSLRLSCAPSGFVFRSYGMHWVRQTPGKGLEWVSLIWHDGSNRFYADSVKGRFTISRDNSKNTLYLQMNSLRAEDTAMYFCARERLIAAPAAFDLWGQGTLVTVSS
VL: SYVLTQPPSVSVAPGKTARISCGGNNIGTKNVHWYQQKPGQAPVLVVYADSDRPSGIPERFSGSNSGNTATLTISRVEVGDEADYYCQVWDSVSYHVVFGGGTTLTVLG
  Kd: 1.3 nM
